This passage reports Kd results from patent US20250243261A1.

The test concerns the target SARS-CoV-2 BQ.1.1 Spike RBD (SARS-CoV-2 BQ.1.1 variant). Nature of the test: BLI, IgG. For orientation: In BLI a coated tip is dipped into the sample, and binding shifts an interference pattern.

pKd: −log10 of the molar value.

LY-1404 WT IgG (antibody), sequence (VH): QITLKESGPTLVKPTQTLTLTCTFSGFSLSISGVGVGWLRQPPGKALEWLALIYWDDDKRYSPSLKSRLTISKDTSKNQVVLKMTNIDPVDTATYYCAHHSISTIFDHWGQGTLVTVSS
LY-1404 WT IgG (antibody), sequence (VL): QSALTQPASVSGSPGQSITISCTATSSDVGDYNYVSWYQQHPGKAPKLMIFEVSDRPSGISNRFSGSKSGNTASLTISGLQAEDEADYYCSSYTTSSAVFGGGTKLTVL

In general, pKd refers to the Kd on a negative log10 scale, so that one unit is a factor of ten. A high value points to a low Kd. LY-1404 WT IgG (antibody) had a pKd of 5.77.
